{"source": "paper PMC6333426", "molecular_target": "Tsx nucleoside transporter of E. coli, on target cells (E. coli) (UniProt P0A927)", "sequence (P0A927 23-294)": "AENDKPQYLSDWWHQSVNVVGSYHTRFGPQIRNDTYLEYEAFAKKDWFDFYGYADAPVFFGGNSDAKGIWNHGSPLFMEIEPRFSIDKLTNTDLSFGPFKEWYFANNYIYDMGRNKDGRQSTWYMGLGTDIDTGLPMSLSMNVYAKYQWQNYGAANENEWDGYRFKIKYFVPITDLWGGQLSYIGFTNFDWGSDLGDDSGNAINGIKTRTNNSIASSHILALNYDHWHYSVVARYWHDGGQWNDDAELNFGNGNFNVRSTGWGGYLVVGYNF", "assay": "flow cytometry on cells"}
{"substance": "CdiA^STECO31 (CdiA from Escherichia coli STEC_O31), wild type, A0A1S4NYE3 33-3253", "values": [{"measurement": "percent of target cells bound", "result": 80, "unit": "%"}]}
